Reference: US20190085039A1 (OSAKA UNIVERSITY, published 2019)

Target: the molecule itself
Test: size exclusion gel filtration chromatography (Superdex 200 10/30, 20 mM HEPES pH 7.4, 150 mM NaCl); no self-association, elutes as a monomer
Description: The solvent is 20 mM HEPES solution of pH 7.4 containing 150 mM NaCl. The larger the molecular weight/molecular volume, the faster the flow in the column. Therefore, peaks appear on the left side in the figure. The spectra indicated with dotted lines in FIG. 1 show the absorptions of 10 μM DsRed (tetramer), tdTomato (dimer), and mCherry (monomer) in order from the left. […] Since the peak position of mfGFP is almost the same as that of mCherry, it can be said that

B1: monomeric green-yellow fluorescent protein mfGFP (other)
chain: MVSKGEEASGRALFQYPMTSKIELNGEINGKKFKVAGEGFTPSSGRFNMHAYCTTGDLPMSWVVIASPLQYGFHMFAHYPEDITHFFQECFPGSYTLDRTLRMEGDGTLTTHHEYSLEDGCVTSKTTLNASGFDPKGATMTKSFVKQLPNEVKITPHGPNGIRLTSTVLYLKEDGTIQIGTQDCIVTPVGGRKVTQPKAHFLHTQIIQKKDPNDTRDHIVQTELAVAGNLWHGMDELYK
notes: It was purified with an N-terminal polyhistidine tag; not shown: N-terminal polyhistidine tag from the bacterial expression vector pRSETB
  binding result: no binding (tested: 10 µM)
